Assay results: patent CN115433277A

Biological target: CD38 FC融合标签蛋白 (CD38 Fc fusion tag protein, expressed in 293F cells) (UniProt P28907)
Experiment: indirect ELISA, CD38 protein coated at 1 μg/ml, B cell culture supernatant, goat anti-rabbit IgG-HRP

B1: 命名为8A1的兔重组单克隆抗体 (anti-CD38 rabbit recombinant monoclonal antibody 8A1) (antibody, V domains shown)
VH: QSLEESGGDLVKPAGSLTLTCTASGFSFSTSYWICWVRQAPGKGLEWIACIYTGSGSTPYASWAKGRFTISKTSSTTVTLQVTSLTAADTATYFCARDPGVHSGTNLWGQGTLVSVSS
VL: DVVMTQTPASVSAAVGGTVTIKCQASEDINTLLAWYQQKPGQPPKLLIYLASNLASGVSSRFKGSRSGTEFTLTISDLECADAATYYCQCTYYGSTYGGTFGGGTEVVVK
B1 showed an OD450 of 2.23 OD450.

B2: 命名为8H7的兔重组单克隆抗体 (anti-CD38 rabbit recombinant monoclonal antibody 8H7) (antibody, V domains shown)
VH: QSVKESEGGLFKPTDTLTLTCTVSGFSLSSYGVIWVRQAPGKGLEYIGFVAVGGTTYYANWAKSRSTITRNTNENTVTLKMTSLTAADTATYFCVRNGVSGSSDIWGPGTLVTVSS
VL: AYDMTQTPASVSEPVGGTVTIKCQASQSIYSYLSWYQQKLGQPPKLLIYSASTLASGVSSRFKGSGSGTEYTLTISGVECADAATYYCQQDYSGSNVDNTFGGGTEVVVK
Work on B2 yielded an OD450 of 1.78 OD450.
